The data set concerns the target T1, human recombinant MMP-7 (Homo sapiens, UniProt P09237).
T1 sequence (P09237 95-267): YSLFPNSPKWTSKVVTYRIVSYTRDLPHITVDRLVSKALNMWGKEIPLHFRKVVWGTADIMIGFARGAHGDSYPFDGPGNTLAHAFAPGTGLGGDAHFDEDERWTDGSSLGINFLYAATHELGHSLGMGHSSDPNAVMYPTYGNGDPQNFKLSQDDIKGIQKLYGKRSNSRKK
Kind of data set: Enzymatic cleavage by MMP-7, analysed by ESI-MS. The data set is classed as biochemical. How it is done:
During development of embodiments of the present invention, a 2 μL aliquot of human recombinant MMP-7 was thawed on ice, diluted to 50 μL with assay buffer containing 1 mM APMA, and incubated for 1 hour at 37° C. to activate the enzyme. To the activated enzyme solution was added 1 μL of a 20 mM solution of gadolinium(III)-diethylenetriaminepentaacetic acid-Ala-Pro-Leu-Ala-Leu-Trp-Ala-PEG3-Ala. The solution was incubated at 37° C. for 24 hours after which 10 μL was dissolved in 50 μL MeOH for analysis by ESI-MS.
1542.75; found negative mode 771.60, (m/2)]

Non-standard residues stand in square brackets, D forms with d. Primed or numbered codes have the meaning given here. No end group written: not given here. *: point of attachment. DTPA′ = diethylenetriaminepentaacetic acid (Gd(III) complex) N-cap, O=C([O-])CN(CCN(CC(=O)[O-])CC(=O)[O-])CCN(CC(=O)[O-])CC(=O)*.[Gd+3]; PEG3′ = not defined here

Turning to “Gadolinium(III)-diethylenetriaminepentaacetic Acid-Ala-Pro-Leu-Ala-Leu-Trp-Ala-PEG3-Ala ({DTPA′}-APLALWA[PEG3′]A; also: Gd(III) complexed by DTPA)”, the “cleavage by MMP-7 (ESI-MS)” value (activated MMP-7, 37° C., 24 hours) was “revealed a peak corresponding to the MMP-7 cleavage fragment Leu-Trp-Ala-PEG3-Ala”. Also, for the setting “no MMP-7”, the “ESI-MS of control solution lacking MMP-7” value is recorded as “revealed only the expected uncleaved”.
